The source of these data is article PMC7589778.

This assay deals with Human mitochondrial LysRS with a C-terminal HA-tag (human) (UniProt Q15046). The assay is described as follows: AlphaScreen or HTRF. (In Alpha technology, singlet oxygen from a donor bead excites a nearby acceptor bead.)

The term Kd denotes a measure of binding affinity in units of concentration. “Integrase from HIV-2_ALL with a C-terminal His-tag (enzyme)” showed a Kd of 2.4 nM.
As for “Integrase from HIV-2_TRA with a C-terminal His-tag (enzyme)”, the Kd was determined as 3.5 nM.
